Data as given in publication doi:10.1101/2023.10.23.563578.

Molecular target: recombinant Ena3A (major subunit of L-ENA fibers) (Bacillus paranthracis NVH 0075-95)
Assay: cryo-EM structure

stoichiometry N: 7
Substance: recombinant Ena3A (major subunit of L-ENA fibers) (natural protein)
